Assay: protease stability score; higher = more stable; yeast display proteolysis, trypsin and chymotrypsin;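 note: log10 excess protease needed over predicted unfolded state with 0 meaning unfolded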

Sequence	protease stability score
EDEVNKILEDVATAIRTGDPDRVVENLDPNAKVQVGDKTLDGQKEVREFFERNQREASVRLHVTSVHVNGDKVKMKANYQQNRNGNPDFKDVDVTAHAHNGKLKVMEHRRDG	-0.451
EDEVRQRAEEFLKAWERGDPETLMRMADPNARFKIGDKEVHGREDYHREHKRQRDQMRYRLHSYEVSASGDKVHVDVSYNMNNNGQPNNSRQTFSARVDNGKIKELNVQSTG	-0.061
EDHTLREFQKNWQHNNPDELEKMMDPNVKIVIGDKKYHGKEEAKRINKQIVDQADHIDIRRVEVSGNKLEIRMVLNVNGNTRELVVIFKLHNGRIKHVEFKFTDERQKNFQEEMLQ	1.08
EDKAKTLLQQYMEAVHQGDPKQVEEMLDPNAQVVIGDKSVRGQNQIQQMVRKLHQHARIDIHVKDLKADGNNVHLTFSQKVEVNGRPERDEATATMVVDNGRAQYLQIEMDETFQRQLEK	-0.341
EDNRLQEIMEKFIRLMQTGDDHTAANLFDEDARIEYGDHSIRGREEFQKYAKELKDRVDHFDVQTIKNRGDEVHIDVNIHVDGKRVRVNMVVQAENGKVKKLRLDPEVVRHMEK	1.3
EDQVIRMVKELWKALRKNNPEKFKDLADKNARFEYGDKHVRGRENMQERMEQQVRDQEVDMRVERVEDRGDHVDVKFEKVVNHNGTPSSHSMTAVYVAENGRLKNVRVKETK	-0.103
EDRAQENLHELLKAIQQGDEDSVESLLDKDVKIQVGDKYIHGRENYAEHVRKTRQEIRVNYRIESYSVHNGRAKMTFRANRDDNGKPETWKAQATMEVDNGRITFIHRNKRG	-0.045
EDRDKVRRAIKRMLDVMSTGDEDKLREYADENVKINVGDKDVHGREEAARFLKTHADQYDHIDQRIQDVKKENGQVEVRREMEATHNGHTHRDREHIVVEIRGDNMKIKSIQRQ	-0.409
EDRDQAKHIIKEIMRAIQTGDRKHAMRQVDPNVRIHVGDKVLEGREEFMKWVKDLRDDVDHFHLRIHDMHVENGQLTADAEFVVDHNGQRRKQRMDVVFLVHGDKVRLLRLQEK	1.4
EDRERAKELVKRLTDAFRTNNPDDYVRQAPPDVTMQVGDKQYHGRSKVKEWIKQILDRVDHLKIELVDVKRSGEKLRFKAEYHYEHNGKTDRNTMEMVFTIQGDKMKIDDATQQ	0.134
EDRHARRVANDFVRAVRKGDETRLKEQFDEDAEVQVGDTTYTGKERVVKHAQDFANSVDHLDVTDLKVNEDHASLSARVNINGRQDTIRIELRVHNGRLKRVNYDTQ	-0.032
EDRQNQEVNKKAQKGDWQHLRELADKDVTLQVGDKQYHGREKFQELLKKLETSVDRFKVDSITFHNGKVKVRAQAVVNGQKIEFVIIITFHNGRAKSMRIQARDEDLEKELLKMLS	0.944
EDTALKIARTLFDILESNNPDEFNKLADPNARVDVGDKKIHGREEIKKQMETEIQQLRVHYEIKRYDSRPNRAHVIADVEVNHNGQPQSHKLVMRLHFKNGKVTEIKFEYRK	-0.053
EDTFVRLVHQMWNDLERGNPEKFRENVDPNARIQVGDQTIHGREQAEEWAERLKRKLQFTVDVKSVTEEPGRIRMRANLINNHNGRPTTKHVIFLANETNGRIKTFRFRQDQ	0.103
EEDAVDRARKMFENLKTGNEDHFKEQFDPNATIRIGDQKVHGMENLKDHMRKVRKHMRVDFRRVDIKAENGRIDIKARADFSVNGRPVSQHFTARAVVSNGRFKSFELQVSEEDEKKVKS	0.606
EEDDQRRLQEWLSQGNFEHLAQNADKDAKASVGEYRVHGREQIKRFLERMQDRIDKVHYETVHFHNGVLRATFRFTVNGKQVVMQMRIEARGDKIKYIEMQARDEDNLKKWKELES	1.03
EEDELRKIKDLLRHGDFETLNRQAPPDATQTVGDQEFTGWEKLHKIWKDLKDRIDHLDWKRITISGETIEARYEFDVDGQRIDMSFRMEVHNGRIQHLEQRATDSDLQKRLKDVIE	0.069
EEDILKRVKHMLKQLETGNEKEYEKNIDPNVKIKVGDKEIRGREEASRYWHRLRHHMRIRVDVKSMNVKNGQVNMNATVTVDVNGRPVRFEFRMVIHATNGTIKEVTLQVDPDQIRKQLG	1.61
EEDKAKEAKEIWDKNNERDLRKKADKDARADVGDKKVHGMETAVQMWSKVRQHVDHVQYHDLKIQGETIRIDFVLHWNGRTVRAQVEFKVSNGQLVDFKLKFTDPDQERKLHEMQK	0.123
EEDKLEHMTKLMTQNDEDRWEELADKNVRIEVGDYRVNGREQASSYLKLLKDQVDDYTVNHIHYQGDKIVANVQASVNGRRFRFQIRITVHNGRLKSMMVKVTDEHFKHVLKNIVG	0.698
EEDLHEAFERIKHALEHGDPKQVQNQFDPNVEVIIGNKTLHGRETLKDEVKKLQDEMQITWRSITINVDGDRVVVHYHIEFRINGQPQSMSYNVDARASNGKIEEMDLRISEDQQKRLNS	0.06
EEDLLEVMERLYQALRENDPKKAMENVDPNARFKVGNKEYRGREQQSKEDTKKRDKMRVDMRIESMEIHGETVHIDATVVNQVNGQPYRQKVIIRARLHNGQIQELEFQLDPSVQEKVRQ	0.538
EEDLLRKLSKILHQQDTGNEETVEKNADPNARFEVGDHKIHGMDQAAREIASKIREIRQEKRIESVSVHGNKMQIHFTFTQEKNGQPQTRRATMVVVMSNGKIKSMKVQYDK	0.697
EEDNRKHAEDIWRAIRKGDEERLKQLFDKDVKFHVGEKEIHGRENYARSVKERREEIKWSVTLDDVHVRGEKIVIRYTFTENNNGRPRHNVQVLEMTVTNGRVVNVDAKDDK	-0.148
EEDQERQAEKLIRILENGDEDKAKEQADPNARFEYGDKKYHGMSNFATEVKKLRDHARVEFDNIRVRAHGDKVRIRLDFKVNINGDPSRFNVHMFNQMHNGQFKQMYKDLDPTELEQIHK	-0.25

Sequence	protease stability score
EEDVSNQVRHAFDLHRSNNPENLEEMFDKNARIRIGDKTIHGREQYSETAEQEIREQKVEYKSIDVKAKNGRVHIRIDFVSNVNGRPKRDSMQQTYEIHNGRISHASIESDS	-0.151
EEDVVEQLKDWYRAVNSGDEERLTQLMDPNAKAEVGDKRVHGMDEYARQQRTRNEKLRFQINSIEIRAKGNHVSVNVDANYHFDGQPRRDTWHIRMQFHNGRLKTLSVTMDPTLLREMEK	0.931
EEEAAHQFNKWLSLMKHGNEHKASEMLDKDAHIKVGDKTLQGREDVQRDVRRRKEELKFSMTIVDYKDHGDKARLTVEQTNDHNGRPRTRRANVTVHVSNGRVKEIVINDDS	-0.265
EEEAFDRAQQFVRAMETGDTTKLEQLADKDVRFDVGDKEVQGREEYSKTVHELKKEMRFRYEFKHYTVTGDEVDARVEFEYEHNGQPRRTQAKVTFIFQGDKLESINMKESQ	0.146
EEEAHTHAEQWFRVLQTGDEERAMKMVDKNAQLQIGDKDIHGREDVRKYVHDRKNEQDVEIKRYSIEVSGNSFNVKIHVRMEHNGQPRTDVLDMKFEVSNGRLTKVSVQSNG	0.021
EEEANKHLRQWWRNFRKGSEEKMKNLMDPNVRVVVGDKVYSGREQVMKMVRDQLTHARFDFDLERLSAHNGKIDITMKLVADINGKPVKVHVKADVQYSNGRIESIVLHVDPDQQRKLTE	2.19
EEEANRNVRKFEQALRHNDPHTLLELVDPNADLQIGNERIKGMHHAAKHLIDWMEEIRVQIRRVTFITRPNHAQLKRKVQAEVNGQPFEYTVEVVFNFHNGRVTEVHMRMDEDKQRKLRS	0.12
EEEAREAVKRVMKAHETNDPDKMMQNFDPNAKLTIGDTELHGREEARKHWEDNLKEIEIRIETWHVEDEGDKATLKVVYVREHNGQPTRERAVVYLRVKNGKVQTVSNQSRK	0.292
EEEAVRRYERMLRLVQNNNTEELNKQLDPNVEYDYGNHEIHGREQAVREMLKLQRKMRIEIQFDRVRHEGDKAVVKYTVLFDINGRPITNSATLYVKFKNGKIVYASAQMPEDFQRKVSS	0.876
EEEDAKRFKHLNERNDFTSLAKQVDEDATLRVGDKEIHGRERVTEFLEKAERAIDHVDIDSVDWSGDHVQFDAKYQVNGTTHHVIVRFRIHNGRIKYMQWDFTDDEVARRFLDNVQ	0.573
EEEDEKRIKSLLEHNDFTRFAELVDKDAHAVIGDKTIHGREEIKKEIEEFKKRIDHLEWKRVDVRNGKVSARMQVTINGRTLDVYMRADVENGHIHYVEIHARTEEAQRVLDEVLS	1.58
EEEDLKQVRKFLDAERDNDEDRLRELVDPNARFKVGDKTYHGMEDYVREVVHRMRQMQFEVDSIDNTVEGDHVRMRIHRTYRHNGKPSTKVYVLKARLHNGKIKHMQQDDDK	0.152
EEEDTKLMKQYADAVNNNNPDELRRQADENVRFEVGDNVFHGRKEYIKDVERKLRNIRITMNVKSLTVEGDKVNVTFEERHNKNGKPETFTAKARAHFHNGRIHSIRYEKDG	0.049
EEEDVETAKQFIEAEEKGDEDRLVELADPNARFNVGDKNLHGREHAAREMRKHQEEADLRLEDVRLDVHNGRVDIELVFTHRHNGQPTRQKVKLTFEQHNGQLTHVQNDETK	0.558
EEEDVKRVEEDLHNGDPDRLRDLMDKDVSVEYGDKTVNGRENAAEIWEHIRRNVDRIRIVSMHVKNGKINFDLTAEVNGTKFQIRVVWELRNGRAKSVKIEVTDEEVKKLLDRLLQ	2.04
EEEDVRKAKKFIQLLNSNDQENLKTLADPNATFRYGDKHIHGMDRVNQYLDRVDHTMKRDIEVTSMSAQGDHVRIHAIMRFKVNGNPDQIDIIIVVVVENGRIKEVQIRMPEEDKRRVDR	0.416
EEEHAKHLNEVMERGDWERLAELADKDVKIRVGDKEYRGRELLERWNRKLYKKVDEVHIDSVHVRNGRITVNMEVNVNGDKVRAQFRIRIHNGKIKHINIQATSEENEERWQEMLD	1.5
EEEKKNRAHQFLKAVERGDPEELRKQFDPNAHARVGDKRYHGMEEWAKDVMRRVRELRMSIKRLSVDVQGNDVKVNMNLVINRNGKPKEFREVWYFKIHNGHFVELHVQEEP	0.477
EEEKLEKMVKDVFEAVQKGNMEELKQYLKEDVRFQFGDNRYQGVDQYVKLMKTMTEQGVQFEFKKFQMKDNTVTMETEAKYADHEVRVKAEARYEGGRLDEARVELTEEAKEIYKKG	1.17
EEEKLKKVAEEVFRMVQNGNYDQLAKLGKDNAEFQFADHRLKGKEQYKKYLEELVKRGVQFEVKKAQLKDNTVTMVTKAKYADTEATVTVQAKYEGGKLDRARVKLSEEVKKVLKKG	0.065
EEEKLQKVAKEMFDAVQKGNVDKLKKLGKEDVEFQFVDHRVKGADHYLQIMKKQLDHGVQFEIKQAQVKDNTVTMTTQVQYGDKTVRVEAKAEYDGGRLQRAEVKLTEEAKEAQKKG	-0.026
EEEKLQKVMEKMFRAVQNGNVEQLKKLGKEDVQFQFVDKRVQGAETYAQEMEKTHRQGNQFEIKEAQVKDDKVTMRTVVDYGDQRITVKAEAQYDGGRLDNARVELTEEYREVLKKG	-0.214
EEEKMEKLMKQLFDAVQKGDVDKFVKYLKEDVEFQFGDNRIKGVEEYKRTMEEMHKKGVQFEIKEAQNKDDTVKMRTVVHYGNQTFEVTAEATYDGGVLDKARVEVSEEAKEAFKKG	0.992
EEEKMKKIIKRMFDAVQKGNTEELRKYGKEDVKFEFIDDRNEGPQQYAERMKKMMKHGVQLEIKEVQLKDNTATMYTVVEYGNRRVTAKAEFEYDGGKLKEARVKISEEAKKVIKTG	0.119
EEEKVKKVVKKLFEAVQKGDKKKLQELLHEDVEFQFGVKRVKGAEQYMRTVDELRQRGVQIEVKKYQVKDDKARMVTVVRYGDKTVTMTAEAEYEGGVLKRARVELTDEAKELVKKG	0.41
